Experimental data reported in patent US11248023B2 (NEURACLE SCIENCE CO., LTD., priority 2015, dated 2022).
Ends that are not written are not given here.

Experiments:
GALR3 = biological target: T1, GALR3 (Homo sapiens, UniProt O60755); experiment: SRE-luc assay in HEK293-Gqi cells expressing GALR3; type: cell-based; conditions: compared with spexin
T1 construct: expressed in transfected cells
T1 sequence (O60755 1-368): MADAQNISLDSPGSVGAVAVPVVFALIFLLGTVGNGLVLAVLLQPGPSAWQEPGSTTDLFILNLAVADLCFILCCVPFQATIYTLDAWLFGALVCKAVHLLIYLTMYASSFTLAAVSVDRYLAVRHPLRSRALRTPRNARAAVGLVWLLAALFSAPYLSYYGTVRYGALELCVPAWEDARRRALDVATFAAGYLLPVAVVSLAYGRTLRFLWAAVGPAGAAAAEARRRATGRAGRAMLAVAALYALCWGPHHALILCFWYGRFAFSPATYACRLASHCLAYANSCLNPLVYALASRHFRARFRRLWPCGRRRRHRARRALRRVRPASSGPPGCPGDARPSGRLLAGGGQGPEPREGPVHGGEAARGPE
Excerpt: (§1) The HEK293-Gqi stable cell line is a cell line in which the C-terminus of Gq is substituted with 3 amino acids of G to convert the signals of G to Gq signaling pathways. […] GALR subtypes 1 and 3 induce inhibitory G-coupled signaling, while GALR subtype 2 triggers stimulatory Gq-coupled signaling. This difference explains the use of the HEK293-Gqi stable cell line in which the C-terminus of Gq is substituted with 3 amino acids of G to convert the signals of Gi to Gq signaling pathways.
(§2) GALR subtypes 1 and 3 induce inhibitory G-coupled signaling, while GALR subtype 2 triggers stimulatory Gq-coupled signaling. This difference explains the use of the HEK293-Gqi stable cell line in which the C-terminus of Gq is substituted with 3 amino acids of G to convert the signals of G to Gq signaling pathways. The activities of the receptors were measured using an SRE-luc assay system designed to express luciferase (luc) by serum responsive element (SRE) promoters. Light caused by a reaction between expressed luciferase and luciferin as a substrate was detected using a luminometer so that receptor subtype-specific or ligand-specific cellular activities were observed. One day after HEK293-Gqi cells were seeded in 48-well plates at a density of 2×10^4 cells/well, plasmid DNA and SRE-luc plasmid DNA, which encode GALR2 and GALR3, respectively, were mixed in a ratio of 1:1 (75 ng+75 ng)/well, and treated with Effectene reagent (2 μl/well). After 3 h, media were replaced with DMEM media supplemented with 10% FBS. After 24 h, the DMEM media were replaced with FBS-free DMEM media. After 16 h, each constructed spexin-based mutant peptide was further incubated at 37° C. for 6 h. After this stage was finished, cells were washed with PBS and lysed by the addition of 100 μl of lysis buffer (0.1% triton X-100, 0.2M Tris, pH 8.0) at room temperature for 20 min. The luciferase activity was determined using a synergy 2 Multi-mode microplate reader (BioTek, Winooski, Vt., USA) with automatic injection of a luciferin solution (0.5 M MgCl2, 0.1 M ATP, 0.05 M D-luciferin, 1 M KH2PO4, pH 7.8).

GALR2 = biological target: T2, GALR2 (Homo sapiens, UniProt O43603); experiment: SRE-luc assay in HEK293-Gqi cells expressing GALR2; type: cell-based; conditions: SRE-luc, HEK293-Gqi cells; compared with spexin
T2 construct: expressed in transfected cells
T2 sequence (O43603 1-387): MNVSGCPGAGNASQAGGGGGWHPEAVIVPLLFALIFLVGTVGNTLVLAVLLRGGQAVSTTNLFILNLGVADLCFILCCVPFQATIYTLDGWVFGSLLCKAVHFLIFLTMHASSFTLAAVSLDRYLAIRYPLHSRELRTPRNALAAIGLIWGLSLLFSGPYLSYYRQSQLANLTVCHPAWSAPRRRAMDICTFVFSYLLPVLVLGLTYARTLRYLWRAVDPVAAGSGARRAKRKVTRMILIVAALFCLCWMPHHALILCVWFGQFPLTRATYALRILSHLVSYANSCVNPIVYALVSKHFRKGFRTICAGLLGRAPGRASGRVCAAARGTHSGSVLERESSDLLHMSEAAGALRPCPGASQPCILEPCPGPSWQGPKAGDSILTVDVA
Excerpt: as §1, §2

[1] = Stability in 100% fetal bovine serum, residual potency via IP3 production in GALR2-expressing cells; conditions: 37° C.
Description: The stability of the spexin-based mutant peptides was investigated. To this end, first, each modified mutant peptide at an initial concentration 10 μM was allowed to react in 100% fetal bovine serum (FBS) at 37° C. for 0, 3, 6, 12, 24, 48, and 72 h. Thereafter, the potencies of the mutant peptide toward GALR2 were determined via inositol 1,4,5-triphosphate (IP3) production in GALR2-expressing cells. For the IP3 assay, cells were seeded in 12-well plates at a density of 2.5×10^5 cells/well and then the next day, cells were treated with a mixture of 1 μg of GALR2-encoding plasmid DNA and Lipofectamine 2000 (Invitrogen). On day following treatment, cells were incubated in M199 media containing 1% FBS, 1% L-glutamine, 1% antibiotic, and myo-^3H inositol 1 μCi/well for 20 h to radioactively label inositol phosphate. After this stage was finished, cells were allowed to react in buffer A (140 mM NaCl, 20 mM Hepes, 4 mM KCl, 8 mM D-glucose, 1 mM MgCl2, 1 mM CaCl2), 1 mg/ml free fatty acid bovine serum albumin, and 10 mM LiCl at pH 7.2) for 30 min. After the mutant peptide was allowed to react in 100% FBS, cells were treated with the mutant peptide for 40 min at 37° C. Media was removed, and reactions were terminated by addition of 1 ml of 10 mM cold formic acid to each well. The plates were allowed to stand at 4° C. for 30 min. Then, the resulting extracts were transferred to 6-mL plastic tubes containing 500 μl AG1-8X anion exchange columns. The tubes were gently mixed with a vortexer, and the supernatants were removed from the labeled mixture. Two washes with 1 ml of triple-distilled water were performed followed by two additional washes with 60 mM ammonium formate/5 mM sodium tetraborate. The radioactively labeled mixture was eluted from the column with 1 ml of 1 M ammonium formate/0.1 M formic acid (1 mL), and 800 μl from the elution were taken from each tube and transferred into scintillation vials. Then, 2 ml of scintillation cocktail solution (Ultima Gold™, Perkin Elmer, Waltham Mass., USA) was added to each sample. The radioactivity of the mixture solution of the radioactively labeled mixture and the scintillation cocktail solution was measured using a TRI carb 2100TR liquid scintillation analyzer (Packard).

Molecule | potency toward GALR3 (GALR3) | potency toward GALR2 (IP3 production) remaining after reaction in serum ([1]; 100% FBS, initial 10 μM, within 12 h) | potency toward GALR2 (GALR2) | stability in serum (100% FBS) ([1]; 0-72 h, IP3 production in GALR2-expressing cells)
[Leu^4]: spexin-based mutant peptide, leucine at position 4, SEQ ID NO: 20 (NWTLQAMLYLKGAQ; [L4]-SPX) | maintained their potencies toward both receptors without differences from those of spexin | – | maintained their potencies toward both receptors without differences from those of spexin | –
[Gly^8]: spexin-based mutant peptide, leucine at position 8 replaced with glycine, SEQ ID NO: 26 (NWTPQAMGYLKGAQ; [G8]-SPX) | decreased potencies | – | decreased potencies | –
[Phe^11]: spexin-based mutant peptide, phenylalanine at position 11, SEQ ID NO: 31 (NWTPQAMLYLFGAQ; [F11]-SPX) | decreased potency toward GALR3 | – | maintained its potency toward GALR2 without a substantial difference | –
[Gly′]: spexin-based mutant peptide, Asn1 replaced with glycine, SEQ ID NO: 12 (GWTPQAMLYLKGAQ; [G1]-SPX) | maintained their potencies toward both receptors without differences from those of spexin | – | maintained their potencies toward both receptors without differences from those of spexin | –
alanine | decreased potency toward GALR3 | – | maintained its potency toward GALR2 without a substantial difference | –
CSCC[C@H](NC(=O)[C@H](C)NC(=O)[C@H](CCC(N)=O)NC(=O)[C@@H]1CCCN1C(=O)[C@@H](NC(=O)[C@H](Cc1c[nH]c2ccccc12)NC(=O)[C@@H](N)CC(N)=O)[C@@H](C)O)C(=O)N[C@@H](CC(C)C)C(=O)N[C@@H](Cc1ccc(O)cc1)C(=O)N[C@@H](CC(C)C)C(=O)N[C@@H](CCCCN)C(=O)NCC(=O)N[C@@H](C)C(=O)N[C@@H](CCC(N)=O)C(N)=O [spexin, reference compound] | – | ≤ 80% | – | –
NWTPNAALYLFGPQ-NH2 (C-terminus assumed) [Qu] | – | – | – | rapidly degraded compared to the wild-type spexin
pQ: spexin with Asn1 replaced with pyroglutamate, SEQ ID NO: 10 | no influence | – | no influence | –
[dN^1]: spexin-based mutant peptide, Asn1 replaced with D-amino acid, SEQ ID NO: 9 | slightly increased the potency | – | slightly increased the potency | –
Fmoc: spexin modified with Fmoc at position 1, SEQ ID NO: 45 | no influence | – | no influence | –
NC(=O)NCCC[C@H](N)C(=O)O [Cit] | no influence | – | no influence | –

The next lines start with results.

potency toward GALR3 (GALR3) | potency toward GALR2 (IP3 production) remaining after reaction in serum ([1]; 100% FBS, initial 10 μM, within 12 h) | Molecule | potency toward GALR2 (GALR2) | stability in serum (100% FBS) ([1]; 0-72 h, IP3 production in GALR2-expressing cells)
decreased potency toward GALR3 | – | [Asn^5]: spexin-based single mutant peptide, asparagine at position 5, SEQ ID NO: 23 (NWTPNAMLYLKGAQ; [N5]-SPX) | maintained its potency toward GALR2 without a substantial difference | –
decreased potency toward GALR3 | – | [Pro^13]: spexin-based mutant peptide, proline at position 13, SEQ ID NO: 39 (NWTPQAMLYLKGPQ; [P13]-SPX) | maintained its potency toward GALR2 without a substantial difference | –
decreased potency toward GALR3 | – | [Leu^11]: spexin-based mutant peptide, leucine at position 11, SEQ ID NO: 32 (NWTPQAMLYLLGAQ; [L11]-SPX) | – | –
